T1: Activin A (human, UniProt P08476 311-426)
T1 sequence: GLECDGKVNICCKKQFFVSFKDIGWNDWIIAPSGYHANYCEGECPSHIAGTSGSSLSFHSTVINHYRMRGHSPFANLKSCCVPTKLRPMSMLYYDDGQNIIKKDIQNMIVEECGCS


Each binder was assayed against T1, Activin A (assay: cell-based or functional assay).

Binder | IC50, inhibition of 100 pM Activin A in A204/CAGAx12-Luc luciferase bioassay [M]
H4H10424P (antibody, human IgG4, V domains shown) VH: QVQLVESGGGVVQPGRSLRLSCAASGFTFSSYGMHWVRQAPGKGLEWVAVIWYDGSNKYNADSVKGRFTISRDNSKNTVYLQMNSLRAEDTAVYYCARARNYDILTGYYNLGMDVWGQGTTVTVSS VL: DIQMTQSPSSLSASVGDRVTITCRASQGIRNDLGWYQQKPGKAPKRLIYAASSLQSGVPSRFSGSGSGTEFTLTISSLQPEDFATYYCLQHNSYPYTFGQGTKLEIK | 7.6e-10
H4H10438P2 (antibody, human IgG4, V domains shown) VH: EVQLVESGGGLVQPGRSLRLSCAASGFTFDDNAMHWVRQPPGKGLEWVSGISWNSGSIGYADSVKGRFTISRDNAKNSLYLQMNSLRAEDTALYYCAKDINDILTGYPLFDYWGQGTLVTVSS VL: not shown | 2.6e-10
H4H10437P2 (antibody, human IgG4, V domains shown) VH: EVQLVESGGGLVQPGRSLRLSCAASGFTFDDYAMHWVRQAPGKGLEWVSGISWNSGSIGYADSVKGRFTISRDNAKNSLYLQMNSLRAEDTALYYCAKDIMGNWDYFYGMDVWGQGTTVTVSS VL: not shown | 2.9e-10
H4H10426P (antibody, human IgG4, V domains shown) VH: EVQLVESGGNLVQSGRSLRLSCTASGFAFDDFAMHWVRQVPGKGLEWVSGISWNSDTIGYADSVKGRFTISRDNAQNSLFLQMDSLRAEDTALYYCVKDMVRGLIGYYYYGMDVWGQGTTVTVSS VL: EIVLTQSPAILSLSPGERAILSCRASQSIYTYLSWYQQTPGRAPRLLIYETSSRATGIPARFIGSGSGTDFTLTISSLEPEDFAFYYCQHRSDWPPTFGQGTKLEIK | 2.3e-10
H4H10445P2 (antibody, human IgG4, V domains shown) VH: QVQLQESGPGLVKPSETLSLICSVSGGSFSSHFWSWIRQPPGKGLEWIGYVLYSGGTNYNPSLKSRVTISVDTSKNQFFLKLSSVTAADTADYYCARAISGITFGGIIVPGSFDIWGQGTMVTVSS VL: not shown | 5.3e-11
H4H10447P2 (antibody, human IgG4, V domains shown) VH: QVQLQESGPGLVKPSETLSLTCSVSGGSFSSHFWSWIRQPPGKGLEWIGYIHYSGGTNYNPSLKSRVTISVDTSKNQFSLKLTSVTAADTADYYCARAISGITFGGMIVPGSFDVWGEGTMVTVSS VL: not shown | 7.8e-11
H4H10452P2 (antibody, human IgG4, V domains shown) VH: QVQLQESGPGLVKPSETLSLTCTVSGGSFSSHFWNWIRQSPGRGLEWIGYIYYSGGTNYNPSFKSRVTMSVDTSKNQFSLKLSSVTAADTAVFYCARARSGITFGGVLVPGSFDIWGQGTMVTVSS VL: not shown | 5.8e-11
H4H10448P2 (antibody, human IgG4, V domains shown) VH: QVQLQESGPGLVKPSETLSLTCTVSGGTFSSHFWSWIRQPPGKGLEWIGYIFYTGGTNHNPSLKSRVTISIDTSKNQFSLKLTSVTAADTAVYYCARARSGITFGGVIVPGSFDIWGQGTMVTVSS VL: not shown | 4.6e-11
H2aM10965N (antibody, mouse IgG2a, V domains shown) VH: RVQLVQSGSEVKKPGASVKVSCRASGYIFTSYDINWVRQATGQGLEWMGWMNPNNGNTAYTQKFQGRVTMTRNTSISTAYMELSSLRSEDTAVYYCARKGLLWFGKLLGYGMDVWGQGTTVTVSS VL: not shown | 3.5e-09
